# Test results reported in article PMC9676404, “Three-dimensional structure of a mycobacterial oligoribonuclease reveals a unique C-terminal tail that stabilizes the homodimer” (The Journal of Biological Chemistry, 2022).
# B1: Orn of Escherichia coli (enzyme, Escherichia coli K-12, UniProt P0A784 1-181, looked up)
# chain: MSANENNLIWIDLEMTGLDPERDRIIEIATLVTDANLNILAEGPTIAVHQSDEQLALMDDWNVRTHTASGLVERVKASTMGDREAELATLEFLKQWVPAGKSPICGNSIGQDRRFLFKYMPELEAYFHYRYLDVSTLKELARRWKPEILDGFTKQGTHQAMDDIRESVAELAYYREHFIKL
# notes: Oligoribonuclease (Orn) of Escherichia coli K-12; open reading frame of orn amplified from genomic DNA; residues 2-181 traced in the structure; also called oligoribonuclease; not shown: His10-Smt3, N-terminal, cleaved
# Key:
# [1] = biological target: Ms_ornΔC (C-terminal deletion mutant of Ms_orn lacking residues 186-209) (Mycobacterium smegmatis mc2155); assay: not stated; oligomeric state of purified Ms_ornΔC, shown in Fig. S3
# [2] = biological target: Orn of Mycobacterium smegmatis (MSMEG_4724, clone B) (Mycobacterium smegmatis mc2155); assay: SEC-MALS; Superdex-75 (10/300) with in-line MALLS and refractive index detectors, room temperature, 20 mM Tris-HCl pH 8.5, 100 mM NaCl, 5% glycerol, 0.5 ml/min; 200 ul of 3 mg/ml Ms_orn or 6 mg/ml Eco_orn
# [3] = biological target: Orn of Mycobacterium smegmatis (MSMEG_4724, clone B) (Mycobacterium smegmatis mc2155); assay: SEC; Superdex-75 column, Ms_orn with increasing concentrations of Gdm-HCl
# [4] = biological target: Orn of Mycobacterium smegmatis (MSMEG_4724, clone B) (Mycobacterium smegmatis mc2155); assay: SEC; Superdex-75 (10/300) column, 20 mM Tris-HCl pH 8.5, 100 mM NaCl; elution volume compared with molecular weight standards
# [5] = biological target: the molecule itself; assay: as above
molecule,measurement,setting,value
Ms_ornΔC (C-terminal deletion mutant of Ms_orn lacking residues 186-209) (domain or fragment),stoichiometry N,[1],2
"Orn of Mycobacterium smegmatis (MSMEG_4724, clone B) (enzyme)",stoichiometry N,[2],2
same,stoichiometry N,[3],2
same,stoichiometry N,[4],2
B1,stoichiometry N,[5],2
